# Laboratory results: patent publication US20230141962A1
# Experiments:
# [1] = target: SARS-CoV-2 S1 Beta Variant (K417N, E484K, N501Y, D614G) (SARS-CoV-2), P0DTC2; settings: remark: other sources report otherwise
# [2] = target: SARS-CoV-2 S1 (D614G) (SARS-CoV-2), P0DTC2; settings: remark: other sources report otherwise
binder,measurement,setting,value
scFv clone #26 (scFv) scFv: QAVLTQAPSASGTLGQQVTISCSGTTSNIGRNTVNWYQHLPGTAPKLLIFVSNQRPSGVPDRFSGSKSGTSASLVISGLQSEDEADYYCGAWDDSLDGMLFGGGTKLTVLGSRGGGGSGGGGSGGGGSLEMAQVQLVQSGAEVKKPGASVKVSCKASGYTFTSYGISWVRQAPGQGLEWMGWISAYNGNTNYAQKLQGRVTMTTDTSTSTAYMELRSLRSDDTAVYYCARGYYGDLDPWGQGTLVTVSSTSGQAGQ,IC50,[1],2.27 nM
same,IC50,[2],1.4 nM
